Target: the molecule itself
Assay: FRET or BRET

B1: Escherichia coli transthyretin-related protein (EcTRP), single Cys variant Asn94Cys with N-terminal His5-tag, fluorophore-labelled (enzyme, UniProt P76341 24-137, looked up)
chain: AQQNILSVHILNQQTGKPAADVTVTLEKKADNGWLQLNTAKTDKDGRIKALWPEQTATTGDYRVVFKTGDYFKKQNLESFFPEIPVEFHINKVCEHYHVPLLLSQYGYSTYRGS
modifications: Cys94 labelled with DyLight 550 maleimide (FRET donor) or Alexa 647 maleimide (FRET acceptor)
- half-life of subunit exchange: > 30 h

Source: article PMC11348317 (Proceedings of the National Academy of Sciences of the …, 2024)
